Experimental data: patent US12018068B2, “Anti-O1 antibodies and uses thereof” (priority 2016, dated 2024)
“Also recorded” adds a separate entry of the source.

Tests used:
O1 LPS = assay: Octet binding affinity to O1 LPS; parameters: species or system Klebsiella pneumoniae; conditions: average, from on-rate and off-rate, read-out: affinity constant (KD) to O1 LPS
From the text: In order to reduce potential sequence liabilities for antibody development including potential immunogenicity due to anti-drug antibodies, an unpaired Cysteine in the light chain CDR3 of KPE33 was exchanged with Threonine (T), and somatic mutations in the frameworks 1, 2, and 4 of KPE33 were replaced with germ line residues (as summarized in FIG. 5). CDRs were maintained as wildtype, except for the C107T substitution described above. The optimized KPE33 was named KPE33v2016. […] This platform provides a powerful tool to measure the rate of biomolecular complex formation and complex stability in a more biologically meaningful setting. Briefly, Protein A coated sensors were coated with 2 μg/mL O1 LPS for 10 minutes before being dipped into solution containing 0.2 μg/mL anti-O1 LPS mAbs in Kinetics buffer (ForteBio, dilute 10× to 1× with PBS). Changes in the number of molecules bound to the biosensor caused a shift in the interference pattern that was recorded in real time. […] The affinity constant (KD) of KPE33 and KPE33v2016 to O1 LPS was calculated based on the on-rate and off-rate from Octet sensorgram.
KPE33v2016 was further optimized, thereby creating two new variants—KPE33 H32+L2016(1EQ) and KPE33 H33+L2016(1EQ). Both of these variants contain a Methionine to Isoleucine mutation adjacent to CDRH1, a Tryptophan to Tyrosine mutation in CDRH2, an Aspartate to Glutamate mutation adjacent to CDRH2, Asparagine to Glutamine and Methionine to Leucine mutations in FRH3 and an Aspartate to Asparagine mutation in CDRH3. In addition, KPE33 H32+L2016(1EQ) had four FRH3 residues changed to the germ-line residues, whereas KPE33 H33+L2016(1EQ) only has three of the same FRH3 residues changed to the germ-line. Both of these variants contain the same light chain as KPE33v2016, but with a single Glutamate to Glutamine mutation in residue 1.

[1] = test system: K. pneumoniae carbapenem-resistant (CRE) strain Kp1131115 (O1); assay: acute lethal pneumonia model, survival; type: in vivo, Klebsiella pneumoniae; conditions: C57BL/6 mice, antibody one hour post bacterial challenge, vs human IgG1 control (R347)
Experimental: (§1) In an acute pneumonia model, C57BL/6 mice were inoculated intranasally with 1e4 to 1e8 CFU of the multi-drug resistant Klebsiella pneumoniae carbapenam resistant (CRE) clinical isolate strain KP1131115 (O1). Anti-K. pneumoniae monoclonal antibody KPE33 at 0.2, 1, and 5 mg/kg and human IgG1 control antibody at 5 mg/kg were given one hour post bacterial challenge (therapeutic dosing). Mouse survival was monitored daily until up to day 8.
as §1, with “Additionally, in an” for “In an”, “monoclonal antibodies […] and […]” for “monoclonal antibody KPE33”, “at 0.2” for “at 0.2, 1,”, “and 1” for “and 5”
KPE33 or KPE33-V-2016 were administered at a dose of 6 mg/kg 1 hour post bacterial infection with a Klebsiella pneumoniae carbapenam resistant strain.

Kp8045 Klebsiella = assay: pneumonia model, KPE33 synergy with meropenem; type: in vivo, Klebsiella pneumoniae; conditions: antibody 1 mpk, meropenem 2.5 mpk, post challenge
Experimental: The synergy of anti-O1 antigen antibodies and antibiotic was also assessed in the pneumonia and bacteremia mouse models.
In the pneumonia experiments, C57BL/6 mice were inoculated intranasally with 1e4 to 1e8 CFU of the Kp8045 Klebsiella. (See FIG. 4A.) In the bacteremia experiments, mice were inoculated with Kp8561 Klebsiella. (See FIG. 4B.) Both sub-therapeutic dosage of antibodies (1 mpk for Kp8045 and 2.5 mpk for Kp8561) and meropenem antibiotic (2.5 mpk for Kp8045 and 5 mpk for Kp8561) were administered post bacterial challenge. Mouse survival was monitored daily until up to day 8.

[2] = test system: Kp43816 LPS and Kp15380 LPS; assay: serum cytokines after LPS challenge (MSD kit); type: in vivo, C57BL/6 mice; conditions: 3 hours after challenge with Kp43816 LPS and Kp15380 LPS
Experimental: In order to determine the effect of anti-O1 antigen antibodies on serum cytokines after LPS challenge, C57BL/6 mice were challenged with 0.3 mg/kg LPS intraperitoneally 24 hours after anti-O1 administration. 3 hours later, animals were sacrificed, and serum cytokines were measured using a Meso Scale Discovery (MSD) proinflammatory cytokine kit based on manufacturer's instruction. Polymyxin B (PMB) was used as a positive control. Serum IL-6, TNF-alpha, and CXCL1 concentration were plotted in Prism.

B1: KPE33: human anti-K. pneumoniae O1 antigen antibody, VH SEQ ID NO:8, VL SEQ ID NO:9, isolated as IgG2 from donor #262 (antibody, V domains shown)
VH: EVQLVESGGALVQPGGSLRLSCAVSGFIFDDYAIHWVRRAPGKGLEWVSGIAWKSGATNYADSVKGRFAISRDNSKKSMYLQMNSLGTEDTALYYCTRRRASGDDTFYYFDYWGQGTLVTVSS
VL: EIVLTQSPATLSLSPGERATLSCRASQNVNTNLAWYQQRPGQSPRLLIYDASTRAAGLPARFSGSGSGTDFTLTISSLEPEDFAVYYCQQCTNWRYTFGQGTKLEIK
modifications: KPE33 VH Amino Acid Sequence; KPE33 VL Amino Acid Sequence
Kd (O1 LPS): 5.83 nM
survival, lethal pneumonia Kp1131115 [1]: protect mice from lethal bacterial challenge; also recorded: dose dependently enhanced survival
survival, combination with meropenem, pneumonia Kp8045 (Kp8045 Klebsiella): significant synergy and better protection than monotherapy

B2: 54H7: mouse hybridoma anti-O1 antigen antibody (Ms IgG3), VH SEQ ID NO:47, VL SEQ ID NO:48 (antibody, V domains shown)
VH: QVHLQQPGSELVRPGASVTLSCKASGYTFTNYWMQWVKQRPGQGLEWIGNIYPGSGNTNYDEKFRSKATLTVDTSSSTAYMHLTSLTSEDSAVYYCTRNWNFDYWGQGTTLTVSS
VL: DIQMTQSPSSLSASLGERVSLTCRASQDIGSSLNWLQQEPDGTIKRLIYATSSLDSGVPKRFSGSRSGSEYSLTISSLEAEDFVDYYCLQHTDSPYTFGGGTKLELK
modifications: 54H7 VH; 54H7 VL Amino Acid Sequence
serum IL-6 [2]: reduces
serum KC (CXCL1) [2]: reduces
serum TNF-alpha [2]: reduces
